# According to ChEMBL document CHEMBL4627406, “Amino Acids Bearing Aromatic or Heteroaromatic Substituents as a New Class of Ligands for the Lysosomal Sialic Acid Transporter Sialin” (J Med Chem, 2020):
# Assays:
# [1] = compound: O=C(N[C@@H](CSCc1cc(=O)oc2cc(O)ccc12)C(=O)O)OCC1c2ccccc2-c2ccccc21; assay: Non-competitive inhibition of human recombinant-Sialin expressed in HEK293 cells assessed as reduction in [3H]Neu5Ac uptake by measuring Km level at 3 uM incubated for 15 mins by liquid scintillation counting method (reference value: 1.4 +/- 0.5 mM)
# [2] = compound: CC(C)C[C@H](NC(=O)OCC1c2ccccc2-c2ccccc21)C(=O)O; assay: Non-competitive inhibition of human recombinant-Sialin expressed in HEK293 cells assessed as reduction in [3H]Neu5Ac uptake by measuring Km level at 10 uM incubated for 15 mins by liquid scintillation counting method (reference value: 1.6 +/- 0.3 mM); assay type: cell-based
protein,measurement,setting,value
"Sialin (Homo sapiens), Q9NRA2 (protein) MRSPVRDLARNDGEESTDRTPLLPGAPRAEAAPVCCSARYNLAILAFFGFFIVYALRVNLSVALVDMVDSNTTLEDNRTSKACPEHSAPIKVHHNQTGKKYQWDAETQGWILGSFFYGYIITQIPGGYVASKIGGKMLLGFGILGTAVLTLFTPIAADLGVGPLIVLRALEGLGEGVTFPAMHAMWSSWAPPLERSKLLSISYAGAQLGTVISLPLSGIICYYMNWTYVFYFFGTIGIFWFLLWIWLVSDTPQKHKRISHYEKEYILSSLRNQLSSQKSVPWVPILKSLPLWAIVVAHFSYNWTFYTLLTLLPTYMKEILRFNVQENGFLSSLPYLGSWLCMILSGQAADNLRAKWNFSTLCVRRIFSLIGMIGPAVFLVAAGFIGCDYSLAVAFLTISTTLGGFCSSGFSINHLDIAPSYAGILLGITNTFATIPGMVGPVIAKSLTPDNTVGEWQTVFYIAAAINVFGAIFFTLFAKGEVQNWALNDHHGHRH",Km,[1],1700 µM
same,Km,[2],1300 µM
